What all share (assay): SPR, antibody captured, C2 as analyte;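 also: biacore at 37 °C, anti-C2 mAbs held by immobilised goat anti-human IgG, C2 alanine or serine mutants injected, double-referenced sensorgrams fitted to a 1:1 kinetic or steady-state model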
In general terms: Surface plasmon resonance follows binding to a sensor surface in real time, without labels.

Experiment [1] has as its target T1, human C2 F689A (human, UniProt P06681 21-752).
T1 sequence: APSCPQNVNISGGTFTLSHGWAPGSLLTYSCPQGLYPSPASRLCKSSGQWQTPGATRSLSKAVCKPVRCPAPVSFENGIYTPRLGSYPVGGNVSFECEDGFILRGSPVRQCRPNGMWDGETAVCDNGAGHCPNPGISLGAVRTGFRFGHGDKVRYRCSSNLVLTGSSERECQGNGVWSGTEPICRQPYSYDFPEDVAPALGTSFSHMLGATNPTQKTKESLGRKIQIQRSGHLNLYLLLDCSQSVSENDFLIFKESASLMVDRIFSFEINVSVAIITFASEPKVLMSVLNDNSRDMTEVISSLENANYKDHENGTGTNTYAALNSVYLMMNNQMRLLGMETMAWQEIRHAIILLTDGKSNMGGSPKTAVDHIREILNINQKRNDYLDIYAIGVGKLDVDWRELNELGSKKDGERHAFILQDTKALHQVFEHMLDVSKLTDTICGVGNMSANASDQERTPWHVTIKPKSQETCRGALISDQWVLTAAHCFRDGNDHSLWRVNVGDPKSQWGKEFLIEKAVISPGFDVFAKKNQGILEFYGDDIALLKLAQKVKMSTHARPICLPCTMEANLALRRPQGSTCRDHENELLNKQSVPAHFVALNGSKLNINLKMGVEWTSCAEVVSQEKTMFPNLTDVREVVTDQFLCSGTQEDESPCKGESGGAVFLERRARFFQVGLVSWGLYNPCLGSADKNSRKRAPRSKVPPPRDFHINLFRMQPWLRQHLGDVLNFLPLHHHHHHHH

The target in experiment [2] is T2, human C2 K430A (human, UniProt P06681 21-752).
T2 sequence: T1 sequence with K410A, A669F

The target in experiment [3] is T3, human C2 R434A (human, UniProt P06681 21-752).
T3 sequence: T1 sequence with R414A, A669F

Experiment [4] addresses T4, human C2 L620A (human, UniProt P06681 21-752).
T4 sequence: T1 sequence with L600A, A669F

Positions count from the first letter of the chain named.

B1: RF16-242 (antibody, human IgG4 S228P, lambda, V domains shown)
VH: EVQLLQSGAEVKKPGESLKISCKGSGYSFTSYWIGWVRQMPGKGLEWMGIIYPGDSDTRYSPSFQGQVTISADKSISTAYLQWSSLKASDTAMYYCARRGHYGDYFDYWGQGTLVTVSS
VL: SYELTQPPSVSVSPGQTARITCSGDALPKKYAYWYHQKSGQAPVLVIYEDRRRPSEIPERFSGSSSGTMATLTITGAQVEDEGVYFCYSRDRAGNQRVFGGGTQLTVLG
notes: pH-dependent anti-C2 antibody from a phage display library
For the molecule B1, the Kd is 6.3 nM in experiment [1], 91 nM in experiment [2], 98.9 nM in experiment [3] and 8 nM in experiment [4].

For orientation: Kd means the constant that tells how readily two partners part at equilibrium. A higher Kd goes with lower affinity.

(Values after patent US20220332804A1 (CSL INNOVATION, published 2022).)
